B1: Hammerhead Ribozyme (parent)
chain: ACCGGAUGUGCUUUCCGGUCUGAUGAGUCCGUGAGGACGAAACAG

Variants of B1 are the subject of the series. Kind of series: self-cleavage, relative activity (ratio to wild type); higher = more cleavage; co-transcriptional.
C3U G36U: the self-cleavage came out at 0.491.
Consider C3U G8C, for which the self-cleavage turned out to be 0.936.
Under C3U G8A stands 1.25.
Turning to C3U G8U, the self-cleavage was 0.945.
For C3G C11A the value was 0.702; for C3G C11G, 0.647; for C3G C11U, 0.314.
For C3G G36C, the self-cleavage came to 0.328.
Turning to C3G G36A, the self-cleavage amounted to 0.271.
As to C3G G36U, the self-cleavage turned out to be 0.278.
In the case of C3G G25U, the self-cleavage is 0.329.
Under C3G G25A stands 0.296.
Take C3G G25C: the self-cleavage was 0.33.
C3U G17U: the self-cleavage came to 0.866.
For C3U G17C, the self-cleavage worked out at 0.675.
Under C3U G17A stands 1.03.
Consider C3G A23G, for which the self-cleavage came to 0.257.
In the case of C3G A23C, the self-cleavage is 0.328.
On to C3G A23U, for which the self-cleavage is 0.242.
With C3G A41G, the self-cleavage was 0.274.
Under C3G A41U stands 0.3.
On to C3G A41C, for which the self-cleavage came to 0.299.
Take C3U C20G: the self-cleavage was determined as 0.306.
Consider C3U C20U, for which the self-cleavage came out at 0.523.
As to C3U C20A, the self-cleavage came out at 0.465.
Take C3A G36A: the self-cleavage was 0.287.
In the case of C3A G36C, the self-cleavage turned out to be 0.338.
As to C3A G36U, the self-cleavage was 0.283.
C3G A6C: the self-cleavage was found to be 0.361.
In the case of C3G A6U, the self-cleavage amounted to 0.322.
For C3G A6G the value was 0.294; for C3A G22A, 0.308; for C3A G22C, 0.285.
For C3A G22U the value was 0.291.
For C3U U7G, the self-cleavage came to 1.25.
C3U U7C: the self-cleavage worked out at 0.743.
For C3U U7A the value was 1.26; for C3A G18U, 0.324.
As for C3A G18A, the self-cleavage came to 0.344.
As for C3A G18C, the self-cleavage turned out to be 0.365.
In the case of C3U G5A, the self-cleavage came out at 0.491.
Take C3U G5U: the self-cleavage was 1.4.
C3U G5C: the self-cleavage amounted to 0.351.
As for C3U U9C, the self-cleavage stood at 1.08.
As for C3U U9A, the self-cleavage came out at 1.03.
Take C3U U9G: the self-cleavage came out at 0.657.
Consider G4A A26G, for which the self-cleavage was found to be 0.35.
G4A A26U: the self-cleavage came out at 0.472.
As for G4A A26C, the self-cleavage was found to be 0.302.
As for C3U G4U, the self-cleavage came out at 0.302.
As to C3U G4C, the self-cleavage was 0.3.
As to C3U G4A, the self-cleavage stood at 0.387.
Regarding C3U G22A, the self-cleavage is 0.381.
With C3U G22C, the self-cleavage was 0.341.
For C3U G22U the value was 0.381; for C3A G17C, 0.708; for C3A G17U, 0.874.
Turning to C3A G17A, the self-cleavage was 0.634.
As to C3G G4U, the self-cleavage was 0.322.
In the case of C3G G4A, the self-cleavage turned out to be 0.283.
For C3G G4C, the self-cleavage is 0.289.
Consider C3U A26G, for which the self-cleavage is 0.366.
For C3U A26C, the self-cleavage worked out at 0.394.
With C3U A26U, the self-cleavage is 0.624.
With C3U C30G, the self-cleavage is 0.727.
C3U C30U: the self-cleavage is 0.929.
On to C3U C30A, for which the self-cleavage stood at 1.05.
Turning to C3G A26G, the self-cleavage is 0.296.
Consider C3G A26U, for which the self-cleavage was 0.361.
For C3G A26C the value was 0.268; for G4A A23U, 0.356; for G4A A23G, 0.272.
As to G4A A23C, the self-cleavage was found to be 0.337.
For the variant C3A U32C, the self-cleavage was determined as 0.803.
As for C3A U32A, the self-cleavage turned out to be 0.7.
As for C3A U32G, the self-cleavage stood at 0.355.
For C3A U28A, the self-cleavage turned out to be 0.311.
Under C3A U28C stands 0.354.
Turning to C3A U28G, the self-cleavage was 0.34.
For C3U G35U the value was 0.761; for C3U G35A, 0.487.
Take C3U G35C: the self-cleavage came out at 0.625.
On to C3U G45U, for which the self-cleavage came out at 0.599.
As to C3U G45C, the self-cleavage stood at 0.579.
For C3U G45A the value was 0.468; for C3A U12A, 0.836; for C3A U12G, 0.487.
For C3A U12C the value was 0.262; for C3A G35C, 0.324; for C3A G35A, 0.376.
Consider C3A G35U, for which the self-cleavage stood at 0.369.
Consider C3U G27A, for which the self-cleavage was 0.93.
Consider C3U G27U, for which the self-cleavage turned out to be 0.554.
With C3U G27C, the self-cleavage is 0.599.
For C3U A41C, the self-cleavage was 0.404.
For the variant C3U A41U, the self-cleavage worked out at 0.378.
Under C3U A41G stands 0.354.
On to C3U C29A, for which the self-cleavage worked out at 0.593.
In the case of C3U C29G, the self-cleavage is 0.594.
For C3U C29U the value was 0.926; for C3A U21A, 0.37.
C3A U21G: the self-cleavage worked out at 0.358.
Turning to C3A U21C, the self-cleavage is 0.376.
As for C3G A37C, the self-cleavage is 0.293.
C3G A37U: the self-cleavage worked out at 0.327.
Under C3G A37G stands 0.334.
Consider C3G U28A, for which the self-cleavage is 0.376.
On to C3G U28C, for which the self-cleavage amounted to 0.447.
Under C3G U28G stands 0.356.
With C3G U14C, the self-cleavage was 0.56.
On to C3G U14G, for which the self-cleavage worked out at 0.557.
As for C3G U14A, the self-cleavage stood at 0.347.
For the variant C3U A42G, the self-cleavage amounted to 0.393.
As for C3U A42C, the self-cleavage came out at 0.406.
Regarding C3U A42U, the self-cleavage turned out to be 0.38.
Under C3G C15A stands 0.298; under C3G C15G, 0.314.
C3G C15U: the self-cleavage is 0.231.
Regarding C3U C38U, the self-cleavage amounted to 0.999.
For C3U C38A, the self-cleavage stood at 0.577.
For C3U C38G the value was 0.745; for C3A U7A, 0.687.
With C3A U7G, the self-cleavage worked out at 0.7.
For C3A U7C the value was 0.386; for C3G A42C, 0.31.
With C3G A42U, the self-cleavage was 0.23.
As for C3G A42G, the self-cleavage came to 0.256.
Turning to C3G G17C, the self-cleavage came out at 0.617.
For the variant C3G G17A, the self-cleavage was 0.511.
Regarding C3G G17U, the self-cleavage came to 0.583.
Take C3U G31U: the self-cleavage was found to be 1.17.
In the case of C3U G31A, the self-cleavage was determined as 1.06.
For the variant C3U G31C, the self-cleavage amounted to 0.974.
Take C3A G25C: the self-cleavage was determined as 0.344.
Turning to C3A G25A, the self-cleavage was found to be 0.298.
C3A G25U: the self-cleavage was 0.282.
As to C3G G35U, the self-cleavage stood at 0.32.
C3G G35C: the self-cleavage was found to be 0.248.
Under C3G G35A stands 0.292; under C3U U14G, 0.78; under C3U U14C, 0.669.
For C3U U14A, the self-cleavage stood at 0.71.
Turning to C3G C30G, the self-cleavage amounted to 0.273.
For C3G C30U, the self-cleavage was determined as 0.636.
Consider C3G C30A, for which the self-cleavage came to 0.353.
With C3U C11A, the self-cleavage stood at 1.16.
For C3U C11U the value was 0.504.
Take C3U C11G: the self-cleavage is 1.25.
In the case of C3U A37G, the self-cleavage worked out at 0.799.
For C3U A37U the value was 0.794; for C3U A37C, 0.566; for C3G G45U, 0.374.
Consider C3G G45A, for which the self-cleavage is 0.371.
As to C3G G45C, the self-cleavage is 0.35.
On to C3G G31A, for which the self-cleavage was determined as 0.636.
For the variant C3G G31C, the self-cleavage was 0.527.
For C3G G31U, the self-cleavage stood at 0.609.
Under G4A stands 0.602.
Regarding C3U G10U, the self-cleavage came to 1.22.
Take C3U G10C: the self-cleavage was 1.05.
Under C3U G10A stands 1.47; under C3G A34G, 0.409; under C3G A34U, 0.389.
For C3G A34C, the self-cleavage was determined as 0.422.
With C3G G39C, the self-cleavage was 0.288.
With C3G G39U, the self-cleavage worked out at 0.284.
Under C3G G39A stands 0.31.

The record behind these values is the RNAGym collection of RNA variant scans (doi:10.7554/elife.80360).
